B1: PIP5K1C peptide 642-657 (Phosphatidylinositol 4-phosphate 5-kinase type-1 gamma), 16-mer library wild type / TLN1 PTB (TLN1 Phosphotyrosine-binding (PTB) domain, residues 309-401) (parent complex)
chain 1: TDERSWVYSPLHYSAQ
chain 2: GVSFFLVKEKMKGKNKLVPRLLGITKECVMRVDEKTKEVIQEWNLTNIKRWAASPKSFTLDFGDYQDGYYSVQTTEGEQIAQLIAGYIDIILK

Variants of: B1
Experiment: proteomic peptide phage display deep mutational scan (ProP-PD DMS): M13 P8 16-mer library selected against immobilised GST-tagged bait for four days (rounds), NGS of the eluted pools per day and pseudo-replica; bait immobilised on MaxiSorp plates (10 µg), library pre-cleared on GST, 2 h binding at 4 °C, five washes; one round per day, days 1-4; value from days 2 and 3

With chain 1 D2I as the variant, how does the screen value read?
Its screen value is 0.000155 average fractional NGS count over selection days 2 and 3 (reads of this peptide / all reads for the bait, averaged over ….

chain 1 D2N was tested. Which screen value did it give?
Its screen value is 0.000972 average fractional NGS count over selection days 2 and 3 (reads of this peptide / all reads for the bait, averaged over ….

For chain 1 D2L, which screen value is on record?
Its screen value is 0.0016 average fractional NGS count over selection days 2 and 3 (reads of this peptide / all reads for the bait, averaged over ….

How did the screen value turn out when chain 1 D2V was run?
The screen value was 0.00155 average fractional NGS count over selection days 2 and 3 (reads of this peptide / all reads for the bait, averaged over ….

chain 1 D2R was tested. Which screen value did it give?
The screen value was 0.00137 average fractional NGS count over selection days 2 and 3 (reads of this peptide / all reads for the bait, averaged over ….

Which screen value does the source give for chain 1 H12G here?
The screen value was 0.00249 average fractional NGS count over selection days 2 and 3 (reads of this peptide / all reads for the bait, averaged over ….

chain 1 H12F was tested. Which screen value did it give?
The screen value was 0.00153 average fractional NGS count over selection days 2 and 3 (reads of this peptide / all reads for the bait, averaged over ….

Which screen value does the source give for chain 1 H12M here?
Its screen value is 0.0016 average fractional NGS count over selection days 2 and 3 (reads of this peptide / all reads for the bait, averaged over ….

With chain 1 H12Q as the variant, how does the screen value read?
The screen value was 0.0044 average fractional NGS count over selection days 2 and 3 (reads of this peptide / all reads for the bait, averaged over ….

chain 1 H12T was tested. Which screen value did it give?
The screen value was 0.00303 average fractional NGS count over selection days 2 and 3 (reads of this peptide / all reads for the bait, averaged over ….

With chain 1 H12W as the variant, how does the screen value read?
The screen value was 0.000302 average fractional NGS count over selection days 2 and 3 (reads of this peptide / all reads for the bait, averaged over ….

With chain 1 H12E as the variant, how does the screen value read?
The screen value was 0.00161 average fractional NGS count over selection days 2 and 3 (reads of this peptide / all reads for the bait, averaged over ….

chain 1 H12A was tested. Which screen value did it give?
Its screen value is 0.00137 average fractional NGS count over selection days 2 and 3 (reads of this peptide / all reads for the bait, averaged over ….

With chain 1 H12K as the variant, how does the screen value read?
The screen value was 0.000275 average fractional NGS count over selection days 2 and 3 (reads of this peptide / all reads for the bait, averaged over ….

chain 1 H12N was tested. Which screen value did it give?
The screen value was 0.00503 average fractional NGS count over selection days 2 and 3 (reads of this peptide / all reads for the bait, averaged over ….

How did the screen value turn out when chain 1 H12P was run?
Its screen value is 0.00102 average fractional NGS count over selection days 2 and 3 (reads of this peptide / all reads for the bait, averaged over ….

For chain 1 H12D, which screen value is on record?
Its screen value is 0.00129 average fractional NGS count over selection days 2 and 3 (reads of this peptide / all reads for the bait, averaged over ….

chain 1 H12V was tested. Which screen value did it give?
The screen value was 0.00311 average fractional NGS count over selection days 2 and 3 (reads of this peptide / all reads for the bait, averaged over ….

Which screen value does the source give for chain 1 V7T here?
Its screen value is 0.0104 average fractional NGS count over selection days 2 and 3 (reads of this peptide / all reads for the bait, averaged over ….

For chain 1 V7K, which screen value is on record?
Its screen value is 0.00287 average fractional NGS count over selection days 2 and 3 (reads of this peptide / all reads for the bait, averaged over ….

For chain 1 V7M, which screen value is on record?
Its screen value is 0.0016 average fractional NGS count over selection days 2 and 3 (reads of this peptide / all reads for the bait, averaged over ….

For chain 1 V7G, which screen value is on record?
The screen value was 0.000623 average fractional NGS count over selection days 2 and 3 (reads of this peptide / all reads for the bait, averaged over ….

chain 1 V7I was tested. Which screen value did it give?
The screen value was 0.000515 average fractional NGS count over selection days 2 and 3 (reads of this peptide / all reads for the bait, averaged over ….

How did the screen value turn out when chain 1 V7L was run?
Its screen value is 0.0042 average fractional NGS count over selection days 2 and 3 (reads of this peptide / all reads for the bait, averaged over ….

With chain 1 V7E as the variant, how does the screen value read?
Its screen value is 0.00195 average fractional NGS count over selection days 2 and 3 (reads of this peptide / all reads for the bait, averaged over ….

With chain 1 V7W as the variant, how does the screen value read?
The screen value was 0.00263 average fractional NGS count over selection days 2 and 3 (reads of this peptide / all reads for the bait, averaged over ….

Which screen value does the source give for chain 1 V7H here?
The screen value was 0.000523 average fractional NGS count over selection days 2 and 3 (reads of this peptide / all reads for the bait, averaged over ….

Which screen value does the source give for chain 1 V7Y here?
The screen value was 0.00645 average fractional NGS count over selection days 2 and 3 (reads of this peptide / all reads for the bait, averaged over ….

chain 1 V7D was tested. Which screen value did it give?
The screen value was 0.000439 average fractional NGS count over selection days 2 and 3 (reads of this peptide / all reads for the bait, averaged over ….

With chain 1 S14F as the variant, how does the screen value read?
Its screen value is 0.00254 average fractional NGS count over selection days 2 and 3 (reads of this peptide / all reads for the bait, averaged over ….

Which screen value does the source give for chain 1 S14R here?
The screen value was 0.000219 average fractional NGS count over selection days 2 and 3 (reads of this peptide / all reads for the bait, averaged over ….

How did the screen value turn out when chain 1 S14H was run?
The screen value was 0.00391 average fractional NGS count over selection days 2 and 3 (reads of this peptide / all reads for the bait, averaged over ….

Which screen value does the source give for chain 1 S14Y here?
Its screen value is 0.00168 average fractional NGS count over selection days 2 and 3 (reads of this peptide / all reads for the bait, averaged over ….

For chain 1 S14W, which screen value is on record?
Its screen value is 0.00882 average fractional NGS count over selection days 2 and 3 (reads of this peptide / all reads for the bait, averaged over ….

chain 1 S14G was tested. Which screen value did it give?
The screen value was 0.000766 average fractional NGS count over selection days 2 and 3 (reads of this peptide / all reads for the bait, averaged over ….

Which screen value does the source give for chain 1 S14V here?
Its screen value is 0.0171 average fractional NGS count over selection days 2 and 3 (reads of this peptide / all reads for the bait, averaged over ….

Which screen value does the source give for chain 1 S14Q here?
The screen value was 0.00119 average fractional NGS count over selection days 2 and 3 (reads of this peptide / all reads for the bait, averaged over ….

Which screen value does the source give for chain 1 S14T here?
The screen value was 0.012 average fractional NGS count over selection days 2 and 3 (reads of this peptide / all reads for the bait, averaged over ….

How did the screen value turn out when chain 1 S5M was run?
The screen value was 0.00508 average fractional NGS count over selection days 2 and 3 (reads of this peptide / all reads for the bait, averaged over ….

Which screen value does the source give for chain 1 S5A here?
Its screen value is 0.0049 average fractional NGS count over selection days 2 and 3 (reads of this peptide / all reads for the bait, averaged over ….

Which screen value does the source give for chain 1 S5F here?
The screen value was 0.000252 average fractional NGS count over selection days 2 and 3 (reads of this peptide / all reads for the bait, averaged over ….

Which screen value does the source give for chain 1 S5I here?
Its screen value is 0.00725 average fractional NGS count over selection days 2 and 3 (reads of this peptide / all reads for the bait, averaged over ….

How did the screen value turn out when chain 1 S5K was run?
Its screen value is 0.00079 average fractional NGS count over selection days 2 and 3 (reads of this peptide / all reads for the bait, averaged over ….

chain 1 S5T was tested. Which screen value did it give?
Its screen value is 0.0143 average fractional NGS count over selection days 2 and 3 (reads of this peptide / all reads for the bait, averaged over ….

Which screen value does the source give for chain 1 S5D here?
The screen value was 0.00879 average fractional NGS count over selection days 2 and 3 (reads of this peptide / all reads for the bait, averaged over ….

For chain 1 S5N, which screen value is on record?
Its screen value is 0.000275 average fractional NGS count over selection days 2 and 3 (reads of this peptide / all reads for the bait, averaged over ….

How did the screen value turn out when chain 1 S5W was run?
The screen value was 0.000786 average fractional NGS count over selection days 2 and 3 (reads of this peptide / all reads for the bait, averaged over ….

For chain 1 S5E, which screen value is on record?
The screen value was 0.00528 average fractional NGS count over selection days 2 and 3 (reads of this peptide / all reads for the bait, averaged over ….

For chain 1 S5P, which screen value is on record?
The screen value was 0.00403 average fractional NGS count over selection days 2 and 3 (reads of this peptide / all reads for the bait, averaged over ….

How did the screen value turn out when chain 1 S5R was run?
Its screen value is 0.00066 average fractional NGS count over selection days 2 and 3 (reads of this peptide / all reads for the bait, averaged over ….

With chain 1 Y8S as the variant, how does the screen value read?
The screen value was 0.00106 average fractional NGS count over selection days 2 and 3 (reads of this peptide / all reads for the bait, averaged over ….

With chain 1 Y8H as the variant, how does the screen value read?
The screen value was 0.0119 average fractional NGS count over selection days 2 and 3 (reads of this peptide / all reads for the bait, averaged over ….

Which screen value does the source give for chain 1 Y8I here?
Its screen value is 0.00147 average fractional NGS count over selection days 2 and 3 (reads of this peptide / all reads for the bait, averaged over ….

How did the screen value turn out when chain 1 Y8G was run?
Its screen value is 0.000458 average fractional NGS count over selection days 2 and 3 (reads of this peptide / all reads for the bait, averaged over ….

chain 1 Y8V was tested. Which screen value did it give?
The screen value was 0.0101 average fractional NGS count over selection days 2 and 3 (reads of this peptide / all reads for the bait, averaged over ….

With chain 1 Y8N as the variant, how does the screen value read?
The screen value was 0.00782 average fractional NGS count over selection days 2 and 3 (reads of this peptide / all reads for the bait, averaged over ….

Which screen value does the source give for chain 1 Y8M here?
Its screen value is 0.00363 average fractional NGS count over selection days 2 and 3 (reads of this peptide / all reads for the bait, averaged over ….

Which screen value does the source give for chain 1 Y8Q here?
The screen value was 0.00124 average fractional NGS count over selection days 2 and 3 (reads of this peptide / all reads for the bait, averaged over ….

How did the screen value turn out when chain 1 Y8K was run?
Its screen value is 0.00106 average fractional NGS count over selection days 2 and 3 (reads of this peptide / all reads for the bait, averaged over ….

chain 1 Y8F was tested. Which screen value did it give?
The screen value was 0.00543 average fractional NGS count over selection days 2 and 3 (reads of this peptide / all reads for the bait, averaged over ….

Which screen value does the source give for chain 1 Y8L here?
Its screen value is 0.0129 average fractional NGS count over selection days 2 and 3 (reads of this peptide / all reads for the bait, averaged over ….

With chain 1 Y8A as the variant, how does the screen value read?
The screen value was 0.00167 average fractional NGS count over selection days 2 and 3 (reads of this peptide / all reads for the bait, averaged over ….

chain 1 Y8T was tested. Which screen value did it give?
The screen value was 0.0121 average fractional NGS count over selection days 2 and 3 (reads of this peptide / all reads for the bait, averaged over ….

With chain 1 Y8W as the variant, how does the screen value read?
Its screen value is 0.004 average fractional NGS count over selection days 2 and 3 (reads of this peptide / all reads for the bait, averaged over ….

Which screen value does the source give for chain 1 Y8E here?
The screen value was 0.002 average fractional NGS count over selection days 2 and 3 (reads of this peptide / all reads for the bait, averaged over ….

How did the screen value turn out when chain 1 T1K was run?
The screen value was 0.001 average fractional NGS count over selection days 2 and 3 (reads of this peptide / all reads for the bait, averaged over ….

How did the screen value turn out when chain 1 T1E was run?
Its screen value is 0.00477 average fractional NGS count over selection days 2 and 3 (reads of this peptide / all reads for the bait, averaged over ….

With chain 1 T1V as the variant, how does the screen value read?
The screen value was 0.00105 average fractional NGS count over selection days 2 and 3 (reads of this peptide / all reads for the bait, averaged over ….

Which screen value does the source give for chain 1 T1N here?
Its screen value is 0.00021 average fractional NGS count over selection days 2 and 3 (reads of this peptide / all reads for the bait, averaged over ….

Which screen value does the source give for chain 1 T1H here?
Its screen value is 0.000767 average fractional NGS count over selection days 2 and 3 (reads of this peptide / all reads for the bait, averaged over ….

chain 1 T1F was tested. Which screen value did it give?
Its screen value is 0.0018 average fractional NGS count over selection days 2 and 3 (reads of this peptide / all reads for the bait, averaged over ….

Which screen value does the source give for chain 1 T1R here?
The screen value was 0.00306 average fractional NGS count over selection days 2 and 3 (reads of this peptide / all reads for the bait, averaged over ….

With chain 1 T1L as the variant, how does the screen value read?
The screen value was 0.000574 average fractional NGS count over selection days 2 and 3 (reads of this peptide / all reads for the bait, averaged over ….

chain 1 T1W was tested. Which screen value did it give?
Its screen value is 0.00109 average fractional NGS count over selection days 2 and 3 (reads of this peptide / all reads for the bait, averaged over ….

For chain 1 T1G, which screen value is on record?
The screen value was 0.00259 average fractional NGS count over selection days 2 and 3 (reads of this peptide / all reads for the bait, averaged over ….

From publication PMC12102759 (2025)
